Source: patent publication US20160017031A1

Columns and labels:
[1] = biological target: GVL peptide-HLA-A2 (hCG beta 47-55 peptide … in HLA-A2 with beta-2 microglobulin) (human); assay: flow cytometry, T2 cells pulsed with 50 to 0.1 µg/ml GVL peptide
[2] = biological target: HLA-A2 (HLA-A*0201) class I molecule without a defined test peptide (human); assay: cell-based or functional assay
[3] = biological target: GVL peptide-HLA-A2 (hCG beta 47-55 peptide … in HLA-A2 with beta-2 microglobulin) (human); assay: flow cytometry, GVL-pulsed T2 cells, 1 µg antibody
[4] = biological target: VLQ peptide-HLA-A2 (hCG beta peptide … in HLA-A2 with beta-2 microglobulin) (human); assay: flow cytometry, VLQ-pulsed T2 cells, 1 µg per stain
[5] = biological target: GVL peptide-HLA-A2 (hCG beta 47-55 peptide … in HLA-A2 with beta-2 microglobulin) (human); assay: flow cytometry, GVL-pulsed T2 cells, 1 µg per stain
[6] = biological target: TMT peptide-HLA-A2 (hCG beta 40-48 peptide … in HLA-A2 with beta-2 microglobulin) (human); assay: flow cytometry, TMT-pulsed T2 cells, 1 µg per stain
[7] = biological target: GVL peptide-HLA-A2 (hCG beta 47-55 peptide … in HLA-A2 with beta-2 microglobulin) (human); assay: flow cytometry, GVL-pulsed T2 cells, 0.01 µg antibody
[8] = biological target: GVL peptide-HLA-A2 (hCG beta 47-55 peptide … in HLA-A2 with beta-2 microglobulin) (human); assay: cell-based or functional assay
[9] = biological target: TMT peptide-HLA-A2 (hCG beta 40-48 peptide … in HLA-A2 with beta-2 microglobulin) (human); assay: cell-based or functional assay
[10] = biological target: HLA-A2 (HLA-A*0201) class I molecule without a defined test peptide (human); assay: flow cytometry, unpulsed T2 cells, 1 µg per stain

Row | MFI [1] [MFI] | CDC specific lysis of GVL-pulsed T2 cells [2] [%] | MFI [3] [MFI] | MFI [4] [MFI] | MFI [5] [MFI] | MFI [6] [MFI] | MFI [7] [MFI] | ADCC of MDA-231 cells, human PBMC, E:T 20:1 [8] [%] | ADCC of MDA-MB-231 cells, human PBMC, E:T 30:1, 10 µg/ml 3.2G1 [8] [%] | ADCC of MDA-MB-231 cells, human PBMC, E:T 30:1, 10 µg/ml 3.2G1 (average) [8] [%] | CDC specific lysis of T2 cells pulsed with 50 to 0.1 µg/ml GVL peptide [8] [%] | GVL peptide concentration giving half-maximal CDC lysis [8] [µg/mL] | complement-dependent cytolysis (CDC) of TMT-pulsed T2 cells [9] [%] | MFI [10] [MFI] | Substance
1 | 250 to 350 | 53 to 70 |  |  |  |  |  |  |  |  |  |  |  |  | BB7.2 monoclonal antibody (anti-HLA-A2)
2 | 10 to 150 |  | 388 | 7.3 | 141 | 7.5 | 14.3 | 6.4 to 13.4 | 6.8 to 9.6 | 8.7 | 6 to 73 | 6 | 2 | 9 | RL4B (antibody)
